Results on 3 molecules are retold here after article PMC8286830 (Biochemical Journal, 2021).

T1: N-terminal domain of TgCEN1 lacking the first 21 residues (Δ21N-TgCEN1, 22–94 aa) (Toxoplasma gondii, UniProt A0A125YHX7 22-94)
T1 sequence (looked up): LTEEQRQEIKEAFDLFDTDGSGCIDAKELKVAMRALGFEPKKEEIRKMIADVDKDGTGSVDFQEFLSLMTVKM

T2: truncated variant of TgCEN1 lacking the first 21 residues (Δ21TgCEN1, 22–169) (Toxoplasma gondii, UniProt A0A125YHX7 22-169)
T2 sequence (looked up): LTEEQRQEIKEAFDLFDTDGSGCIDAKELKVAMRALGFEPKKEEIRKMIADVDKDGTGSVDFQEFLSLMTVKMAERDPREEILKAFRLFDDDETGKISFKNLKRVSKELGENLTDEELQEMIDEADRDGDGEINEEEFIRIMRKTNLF

B1: N-terminal domain of TgCEN1 (N-TgCEN1, 1–94 aa) (domain or fragment, Toxoplasma gondii, UniProt A0A125YHX7 1-94, looked up)
chain: MHSRKGASSLPRGRGAGKKTELTEEQRQEIKEAFDLFDTDGSGCIDAKELKVAMRALGFEPKKEEIRKMIADVDKDGTGSVDFQEFLSLMTVKM
B2: C-terminal domain of TgCEN1 (C-TgCEN1, 95–169 aa) (domain or fragment)
chain: not shown

Series [1] deals with the molecule itself. The series can be described thus: dynamic light scattering.
In series [2] the target is T1, N-terminal domain of TgCEN1 lacking the …. The series can be described thus: ITC. (In ITC the heat of successive injections is recorded.)
Series [3] concerns the target T2, truncated variant of TgCEN1 lacking the …. The series can be described thus: ITC.
In series [4] the target is B2. The series can be described thus: ITC.
Series [5] deals with T2, truncated variant of TgCEN1 lacking the …. The series can be described thus: ITC. This is another data set of the same source.
Series [6] has as its target B2. The series can be described thus: ITC. This is another data set of the same source.
Series [7] concerns the molecule itself. The series can be described thus: dynamic light scattering. This is another data set of the same source.

Read-outs that look alike come from different tables or passages of the source.

Broadly, the Kd is the free concentration of one partner at which half of the binding sites on the other are occupied at equilibrium, for simple one-to-one binding. A lower Kd goes with a tighter complex. A word on the stoichiometry N: it is the number of molecules, sites or subunits per partner or assembly.

In the case of B1, the binding result in series [1] is on record as “binds”.

With NWKLLAKGLLIRERLKR [P17-XPC peptide (17-residue peptide of the human xeroderma pigmentosum group C protein, N847-R863)], in series [2], the Kd is 396 nM, the dH was -17.7 kcal/mol and the “stoichiometry N” value came to 0.7. Besides, in series [3], the “dH of site 1 (high-affinity site, two-site model)” value was -23.8 kcal/mol and the “dH of site 2 (low-affinity site, two-site model)” value is -12.1 kcal/mol. Besides, in series [4], the Kd turned out to be 6.7 nM, the dH is -22.9 kcal/mol and the “stoichiometry N” value came out at 0.8. Besides, in series [5], the dissociation constant Kd stood at 59.1 nM, the dH is -31.5 kcal/mol and the “stoichiometry N” value came to 0.9. Further, in series [6], the Kd is 50.1 nM, the dH is -28.4 kcal/mol and the “stoichiometry N” value turned out to be 0.8.

Consider B2, for which the binding result in series [7] is given as “binds”.
